Measured values from patent US20200291135A1 (INSPIRNA, published 2020).

Key:
[1] = biological target: T1, human MERTK expressed on cells (SKMEL5 melanoma cells; in vitro differentiated M2 macrophages) (human, UniProt Q12866 21-999); experiment: flow cytometry, APC-labeled z10 on MERTK-expressing SKMEL5 melanoma cells
T1 construct: Endogenous MERTK of human cells; also called surface MERTK
T1 sequence: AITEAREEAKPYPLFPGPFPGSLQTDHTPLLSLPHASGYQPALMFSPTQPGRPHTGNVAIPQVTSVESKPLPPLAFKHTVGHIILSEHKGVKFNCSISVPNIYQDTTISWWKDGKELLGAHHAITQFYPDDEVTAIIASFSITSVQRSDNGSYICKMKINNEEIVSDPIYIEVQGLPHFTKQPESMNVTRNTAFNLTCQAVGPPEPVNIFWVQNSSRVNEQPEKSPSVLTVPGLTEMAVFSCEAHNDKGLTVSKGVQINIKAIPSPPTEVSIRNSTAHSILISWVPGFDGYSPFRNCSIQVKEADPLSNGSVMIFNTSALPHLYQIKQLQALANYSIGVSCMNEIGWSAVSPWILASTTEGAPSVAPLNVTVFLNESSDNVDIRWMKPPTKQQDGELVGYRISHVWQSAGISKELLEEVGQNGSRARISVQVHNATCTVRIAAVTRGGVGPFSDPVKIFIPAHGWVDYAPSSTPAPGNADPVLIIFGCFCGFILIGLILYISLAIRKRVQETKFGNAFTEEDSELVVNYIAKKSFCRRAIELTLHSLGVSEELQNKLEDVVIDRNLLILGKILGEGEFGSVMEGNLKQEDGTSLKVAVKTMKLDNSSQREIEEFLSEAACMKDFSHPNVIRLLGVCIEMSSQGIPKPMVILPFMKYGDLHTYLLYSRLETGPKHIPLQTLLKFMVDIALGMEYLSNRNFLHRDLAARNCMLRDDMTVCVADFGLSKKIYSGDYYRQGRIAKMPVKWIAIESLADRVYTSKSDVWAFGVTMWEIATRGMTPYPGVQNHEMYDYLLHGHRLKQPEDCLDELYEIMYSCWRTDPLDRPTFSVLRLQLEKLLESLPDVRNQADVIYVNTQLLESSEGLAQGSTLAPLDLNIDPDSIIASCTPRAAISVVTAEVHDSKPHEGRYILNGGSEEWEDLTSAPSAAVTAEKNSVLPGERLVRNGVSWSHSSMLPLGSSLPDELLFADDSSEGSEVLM
Method: SKMEL5 cells were harvested with trypsin, washed twice with PBS and strained through a 70 µm filter. 50,000 cells were resuspended in 60 μL FACS buffer (2% BSA, 10 mM EDTA, 25 mM HEPES, 0.1% sodium azide in Ca/Mg-free PBS) containing 10% human AB serum (Sigma, H4522). […] The APC signals from live single cells were analyzed in FlowJo and the MFIs were plotted with GraphPad Prism. Single color control samples were used to create a compensation matrix.

[2] = biological target: T2, extracellular MERTK domain (W3725-hPro1, Sino Biological, 10298-HCCH) (human, UniProt Q12866 21-505); experiment: SPR, affinity format: z10 captured by anti-human Fc on CM5 chip, extracellular MERTK domain as analyte, 1:1 fit; Affinity, SPR
T2 construct: extracellular domain; also called human extracellular MERTK
T2 sequence (looked up): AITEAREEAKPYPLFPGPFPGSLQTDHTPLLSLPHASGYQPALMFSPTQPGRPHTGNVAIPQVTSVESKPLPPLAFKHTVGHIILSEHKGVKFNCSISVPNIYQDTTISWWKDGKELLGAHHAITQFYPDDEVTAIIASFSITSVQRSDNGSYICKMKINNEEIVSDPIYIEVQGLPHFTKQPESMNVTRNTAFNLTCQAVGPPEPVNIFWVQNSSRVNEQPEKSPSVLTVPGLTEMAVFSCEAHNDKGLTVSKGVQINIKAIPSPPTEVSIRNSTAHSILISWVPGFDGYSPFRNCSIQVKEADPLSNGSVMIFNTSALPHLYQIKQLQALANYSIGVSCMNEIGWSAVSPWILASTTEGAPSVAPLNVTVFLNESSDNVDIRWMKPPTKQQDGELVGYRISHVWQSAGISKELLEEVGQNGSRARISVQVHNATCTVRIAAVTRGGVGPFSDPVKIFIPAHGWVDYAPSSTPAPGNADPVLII
Method: A CM5 sensor chip was activated for 420 s with a mixture of 400 mM EDC and 100 mM NHS. […] The chip was deactivated by 1 M ethanolamine-HCl. […] 10 mM glycine pH 1.5 as regeneration buffer was injected following every dissociation phase. The chip was regenerated with 10 mM glycine pH 1.5. One surface channel (without captured ligand) was used as control surface for reference subtraction. Final data of each interaction was deducted from reference channel and buffer channel data. […] A molecular weight of 54 kDa was used to calculate the molar concentration of the analyte.

B1: z10 antibody (antibody, human IgG1, kappa, V domains shown)
VH: QVQLVQSGAEVKKPGASVKVSCKASGYTFTNYGMNWVRQAPGQGLEWMGWINTYTGEPTYADDFKGRVTFTTDTSTSTAYMELRSLRSDDMAVYYCARKSTVVSRYFDVWGQGTTVTVSS
VL: DIQMTQSPSFLSASVGDRVTITCKASQDVGDAVTWYQQKPGKAPKLLIYWASTRHTGVPDRFSGSGSGTDFTLTISSLQPEDFATYYCQQYRSYPLTFGQGTKLEIKR
notes: also called MERTK (z10) antibody
- EC50 [1]: 6.7 nM
- Kd [2]: 3 nM
